Test results from the supplement of paper PMC12042874.
± gives the uncertainty stated by the source.

Assay: amyloid nucleation score (Sup35N fusion, yeast selection) (log enrichment); library NNK3; higher = more nucleation; inactive = no reads after selection
How it was run: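 Peptides of 20 random codons fused to Sup35N were expressed in psi-negative yeast, induced 24 hours with 100 μM copper sulfate, then grown 7 days at 30°C on medium lacking adenine and uracil. Input and output plasmid inserts were Illumina-sequenced. Nucleation score is the DiMSum log enrichment of output over input reads, centred on the mode score of non-aggregating sequences, excluding sequences with under 100 input reads. Random libraries had three technical output replicates.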

Substance | amyloid nucleation score
RKTSSY | -0.725 ± 0.84
RSYLSEHSNYGAKSSYYGIF | inactive
RKGFKAIGY | inactive
LRCHLRKGSRISRSL | inactive
EAGSPALRR | 0.078 ± 0.7
PLNNGHLLSMPICKIRLVKA | inactive
YGCWQRWSRQVGYFRGDKAC | inactive
QFIINDSFYINQNNRRYSKV | inactive
LCYALQEGRRWEGYEIRNSM | inactive
GLRNYRDGVKIASAVSVGAS | inactive
YTWYCFCRC | 2.44 ± 0.055
ATGLWGICGWTPDTNHLQVM | inactive
SCEDLWNNMIAWMFATSRR | 1.26 ± 0.1
VSHTIKAILFGFRRQDHLYF | inactive
DVNVALIHSDL | inactive
FHWYFLCLAFLG | 0.398 ± 0.3
GVKVSDMSPDRDNLWFSRCS | inactive
VLGNRRFSGLFGEYQGKTTG | -0.593 ± 1.1
FFFVDMYWSDCLKDLLL | inactive
HYLRHHIAILSLATGLMETE | inactive
ISLSR | inactive

Substance | amyloid nucleation score
SVRYTV | inactive
AKYFKFKHNVKGVHWKHVPE | -0.074 ± 0.53
FFSAPMNEVKTGTILKGFVC | inactive
YMYFKVDVDWRSPGMTARLL | inactive
HMCIG | inactive
RIQCLCVDVLSVMLSVHA | 1.48 ± 0.11
QMKKLWFF | inactive
SALLQAIF | inactive
DICRFNWMFHF | 1.3 ± 0.11
WCFGYLHMNIV | inactive
GVNDRGDENGVVGA | inactive
FLMRCISLGGTGANFLLELS | inactive
KWNCHLVLPLWIPGLVMMGR | inactive
TVSTE | inactive
FGSPYWLAYIV | inactive
VCPVERSY | inactive
FVKLKYINFGCLRGCESGCL | 1.42 ± 0.13
IVMKALNAFWTRTMLMFHHM | inactive
VSTSFDFKWNLSLGIWFMVI | inactive
MIRWAYLCM | inactive
VLSHSHGSWSRESYKLLRLD | inactive

Substance | amyloid nucleation score
VVWLQFGMEVKSSFSMTSKT | inactive
PTGFLLPDAGWKIYTGSLDV | inactive
YLAPHMSATVVLDNEFGPES | inactive
SYGQSCCQDTGLSRNALMQ | inactive
NPRHGYLPTIIGLDHSIHDL | inactive
TNRVIVSMRLYVMDLYYCRT | inactive
DISIPVLKRSFTCSMAYHC | inactive
LDNKFSALGCFANARFK | inactive
YYIIWRFQGIVLKYGTALTF | inactive
RQGPIYPWVLC | inactive
SWLFGLCYF | 2.06 ± 0.085
IDKVLGPKVPAHRTSGGLSK | inactive
LRTTDSGSGIYLTNSVHGFV | inactive
LISNFVWLQLRCA | inactive
YSESIFIV | inactive
SALEKVDGATSIEVLPTNRR | inactive
FDMTL | inactive
NDSTHLRSRC | inactive
WGCEIRANLLITSWVSVTVG | inactive
SFQSLTM | inactive
RDMFIYKTCMKVCVQLPYII | inactive

Substance | amyloid nucleation score
LNTNWCSSK | inactive
LNMKTV | -0.702 ± 1
KIFSSLFRK | 0.251 ± 0.18
RSQEVKTVGSLWQFFVSVLG | inactive
REREF | inactive
SYNILHDVSQLGTRQPPLE | inactive
CGTTVGFLMLYLSCIRWL | inactive
FTLFMDRVIFASSVDSTEIL | inactive
NQNIMWIAKYIF | 0.845 ± 0.14
WMNGISKL | inactive
EQLKTRNRKVWV | inactive
WYLIFGCRASWGSWR | -0.039 ± 0.61
CVTINVIFDNVVY | 2.3 ± 0.061
FLLCHYCFFVDTPGRIFYYS | 0.724 ± 0.18
ILADSCGV | inactive
MAINYTFFPPRLVT | inactive
GSWDI | inactive
NVYTPSIFACWSLCEGFFGI | 2.2 ± 0.063
